Reference: patent US11278600B2, “Human alpha-galactosidase variants” (Codexis, Inc., priority 2014, dated 2022)
Numbering of substitutions follows the chain as printed.

B1: 237 (protein)
chain: LDNGLARTPTMGWLHWERFMCNLDCQEEPDSCISEKLFMEMAELMVSEGWKDAGYEYLCIDDCWMAPQRDSEGRLQADPQRFPHGIRQLANYVHSKGLKLGIYADVGNKTCAGFPGSFGYYDIDAQTFADWGVDLLKFDGCYCDSLENLADGYKHMSLALNRTGRSIVYSCEWPLYMWPFQKPNYTEIRQYCNHWRNFADIDDSWASIKSILDWTSRNQERIVDVAGPGGWNDPDMLVIGNFGLSWNQQVTQMALWAIMAAPLFMSNDLRHISPQAKALLQDKDVIAINQDPLGKQGYQLRKGDNFEVWERPLSGDAWAVAMINRQEIGGPRSYTIPVASLGKGVACNPGCFITQLLPVKRKLGFYDWDSRLRSHINPTGTVLLQLENTMQMSLKDLL
modifications: Synthetic Polypeptide sequence of Variant No. 237 of mature Human GLA
B2: 243 (protein)
chain: B1 chain with R217F, N247D, D316L, K343G, D367E, D369T
modifications: Synthetic Polypeptide sequence of Variant No. 243 of mature Human GLA
B3: 240 (protein)
chain: B1 chain with R217F, L269I, K302Q, D316L, P337A, P349L, G350A, D367E, D369T, R373K
modifications: Synthetic Polypeptide sequence of Variant No. 240 of mature Human GLA
B4: 244 (protein)
chain: B1 chain with R217F, N247D, P337A, D367E, D369T
modifications: Synthetic Polypeptide sequence of Variant No. 244 of mature Human GLA
B5: 246 (protein)
chain: B1 chain with R217F, G350A, D367E, D369T
modifications: Synthetic Polypeptide sequence of Variant No. 246 of mature Human GLA
B6: 238 (protein)
chain: LDNGLARTPTMGWLHWERFMCNLDCQEEPDSCISEKLFMEMAELMVSEGWKDAGYEYLCIDDCWMAPQRDSEGRLQADPQRFPHGIRQLANYVHSKGLKLGIYADVGNKTCAGFPGSFGYYDIDAQTFADWGVDLLKFDGCYCDSLENLADGYKHMSLALNRTGRSIVYSCEWPLYMWPFQKPNYTEIRQYCNHWRNFADIDDSWASVKSILDWTSFNQERIVDVAGPGGWNDPDMLVIGNFGLSWNQQVTQMALWAIMAAPLFMSNDLRHISPQAKALLQDKDVIAINQDPLGKQGYQLRQGDNFEVWERPLSGLAWAVAVINRQEIGGPRSYTIAVASLGGGVACNPACFITQLLPVKRKLGLYEWTSRLKSHVNPTGTVLLQLENTMQMSLKDLL
modifications: Synthetic Polypeptide sequence of Variant No. 238 of mature Human GLA
B7: 245 (protein)
chain: B6 chain with V208I, N247D, Q302K, G343K
modifications: Synthetic Polypeptide sequence of Variant No. 245 of mature Human GLA
B8: 241 (protein)
chain: B6 chain with V208I, N247D, G343D, L365F
modifications: Synthetic Polypeptide sequence of Variant No. 241 of mature Human GLA
B9: 239 (protein)
chain: B6 chain with R221K, N247D, V322I, G343D
modifications: Synthetic Polypeptide sequence of Variant No. 239 of mature Human GLA
B10: 242 (protein)
chain: B6 chain with V208I, N247D, V376I
modifications: Synthetic Polypeptide sequence of Variant No. 242 of mature Human GLA

What was measured:
Format in all cases: biochemical
[1] = HTP-analysis of supernatants pretreated with bovine serum (MUGal hydrolysis); conditions: activity of the variant/activity of Rd2BB (SEQ ID NO: 10), yeast culture supernatant
Protocol: Yeast (INVSc1) cells transformed with vectors expressing GLA and GLA variants using the lithium acetate method were selected on SD-Ura agar plates. After 72 h incubation at 30° C. colonies were placed into the wells of Axygen® 1.1 ml 96-well deep well plates filled with 200 μl/well SD-Ura broth (2 g/L SD-Ura, 6.8 g/L yeast nitrogen base without amino acids [Sigma Aldrich]), 3.06 g/L sodium dihydrogen phosphate, 0.804 g/L disodium hydrogen phosphate, pH 6.0 supplemented with 6% glucose. The cells were allowed to grow for 20-24 hours in a Kuhner shaker (250 rpm, 30° C., and 85% relative humidity). Overnight culture samples (20 μL) were transferred into Corning Costar® 96-well deep plates filled with 380 µL of SD-ura broth supplemented with 2% glucose. The plates were incubated for 66-84 h in a Kuhner shaker (250 rpm, 30° C., and 85% relative humidity). The cells were then pelleted (4000 rpm×20 min), and the supernatants isolated and stored at 4° C. prior to analysis.
GLA variants were challenged with bovine serum to simulate the conditions the variants encounter following infusion into a patient. First, 20 μL of yeast culture supernatant and 80 μL, of bovine serum were added to the wells of a 96-well round bottom plate. The plates were sealed and incubated at 37° C. for 1 h. For the assay, 50 μL of serum-challenged sample was mixed with 25 μL, of 1 M citrate buffer pH 4.3 and 25 μL, of 4 mM MUGal in McIlvaine buffer pH 4.8. The reactions were mixed briefly and incubated at 37° C. for 180 minutes, prior to quenching with 100 μL, of 1 M sodium carbonate. Hydrolysis was analyzed using a SpectraMax® M2 microplate reader monitoring fluorescence (Ex. 355 nm, Em. 448 nm).

[2] = HTP-analysis of yeast culture supernatants, no challenge (MUGal hydrolysis); conditions: activity of the variant/activity of Rd2BB (SEQ ID NO: 10), yeast culture supernatant
Method in brief: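 GLA variants expressed in yeast INVSc1, secreted into SD-Ura broth over 66-84 h at 30° C; clarified supernatants tested without challenge. Supernatant mixed with McIlvaine buffer pH 4.8 and 2 mM MUGal (citrate/KCl, pH 4.6), 37° C for 30-180 min, carbonate-quenched, fluorescence Ex 355/Em 448 nm.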

[3] = HTP-analysis of supernatants pretreated with acid (MUGal hydrolysis); conditions: challenge at pH 4.2; activity of the variant/activity of Rd2BB (SEQ ID NO: 10); yeast culture supernatant
Method in brief: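 Fluorescence of MUGal hydrolysis (Ex. 355 nm, Em. 448 nm) is read after sodium carbonate quench. The enzyme source is INVSc1 yeast culture supernatant, first exposed to pH 3.3-4.3 McIlvaine buffer at 37° C. for 1-3 h, then reacted at pH 4.8 for 30-180 minutes.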

[4] = HTP-analysis of supernatants pretreated with base (MUGal hydrolysis); conditions: challenge at pH 7.6; activity of the variant/activity of Rd2BB (SEQ ID NO: 10); yeast culture supernatant
Method in brief: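 Supernatants from INVSc1 yeast expressing GLA variants (SD-Ura, 66-84 h, 30° C) were mixed with McIlvaine buffer pH 7.0-8.2 or 200 mM sodium bicarbonate pH 9.1-9.7 and held 1-18 h at 37° C. Residual activity was then measured on MUGal at pH 4.8/4.3, 37° C, 30-180 min, by fluorescence (Ex 355/Em 448 nm).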

Molecule | Relative Activity of GLA Variants After Challenge with Serum [1] | Relative Activity of GLA Variants After No Challenge (NC) [2] | Relative Activity of GLA Variants After Challenge at pH 4.2 [3] | Relative Activity of GLA Variants After Challenge at pH 7.6 [4]
B1 | +++ (+++ = >2.5 relative activity over Rd2BB (SEQ ID NO: 10)) | +++ (+++ = >2.5 relative activity over Rd2BB (SEQ ID NO: 10)) | +++ (+++ = >2.5 relative activity over Rd2BB (SEQ ID NO: 10)) | +++ (+++ = >2.5 relative activity over Rd2BB (SEQ ID NO: 10))
B2 | +++ (+++ = >2.5 relative activity over Rd2BB (SEQ ID NO: 10)) | +++ (+++ = >2.5 relative activity over Rd2BB (SEQ ID NO: 10)) | +++ (+++ = >2.5 relative activity over Rd2BB (SEQ ID NO: 10)) | +++ (+++ = >2.5 relative activity over Rd2BB (SEQ ID NO: 10))
B3 | + (+ = 0.5 to 1.5 relative activity over Rd2BB (SEQ ID NO: 10)) | − (− = <0.5 relative activity over Rd2BB (SEQ ID NO: 10)) | + (+ = 0.5 to 1.5 relative activity over Rd2BB (SEQ ID NO: 10)) | + (+ = 0.5 to 1.5 relative activity over Rd2BB (SEQ ID NO: 10))
B4 | +++ (+++ = >2.5 relative activity over Rd2BB (SEQ ID NO: 10)) | +++ (+++ = >2.5 relative activity over Rd2BB (SEQ ID NO: 10)) | +++ (+++ = >2.5 relative activity over Rd2BB (SEQ ID NO: 10)) | +++ (+++ = >2.5 relative activity over Rd2BB (SEQ ID NO: 10))
B5 | +++ (+++ = >2.5 relative activity over Rd2BB (SEQ ID NO: 10)) | +++ (+++ = >2.5 relative activity over Rd2BB (SEQ ID NO: 10)) | +++ (+++ = >2.5 relative activity over Rd2BB (SEQ ID NO: 10)) | +++ (+++ = >2.5 relative activity over Rd2BB (SEQ ID NO: 10))
B6 | ++ (++ = 1.5 to 2.5 relative activity over Rd2BB (SEQ ID NO: 10)) | ++ (++ = 1.5 to 2.5 relative activity over Rd2BB (SEQ ID NO: 10)) | +++ (+++ = >2.5 relative activity over Rd2BB (SEQ ID NO: 10)) | +++ (+++ = >2.5 relative activity over Rd2BB (SEQ ID NO: 10))
B7 | ++ (++ = 1.5 to 2.5 relative activity over Rd2BB (SEQ ID NO: 10)) | ++ (++ = 1.5 to 2.5 relative activity over Rd2BB (SEQ ID NO: 10)) | +++ (+++ = >2.5 relative activity over Rd2BB (SEQ ID NO: 10)) | +++ (+++ = >2.5 relative activity over Rd2BB (SEQ ID NO: 10))
B8 | ++ (++ = 1.5 to 2.5 relative activity over Rd2BB (SEQ ID NO: 10)) | ++ (++ = 1.5 to 2.5 relative activity over Rd2BB (SEQ ID NO: 10)) | +++ (+++ = >2.5 relative activity over Rd2BB (SEQ ID NO: 10)) | +++ (+++ = >2.5 relative activity over Rd2BB (SEQ ID NO: 10))
B9 | ++ (++ = 1.5 to 2.5 relative activity over Rd2BB (SEQ ID NO: 10)) | +++ (+++ = >2.5 relative activity over Rd2BB (SEQ ID NO: 10)) | +++ (+++ = >2.5 relative activity over Rd2BB (SEQ ID NO: 10)) | +++ (+++ = >2.5 relative activity over Rd2BB (SEQ ID NO: 10))
B10 | +++ (+++ = >2.5 relative activity over Rd2BB (SEQ ID NO: 10)) | +++ (+++ = >2.5 relative activity over Rd2BB (SEQ ID NO: 10)) | +++ (+++ = >2.5 relative activity over Rd2BB (SEQ ID NO: 10)) | +++ (+++ = >2.5 relative activity over Rd2BB (SEQ ID NO: 10))
